Test results reported in patent publication US20060229240A1 (GARDELL ET AL, published 2006).
Read-outs that look alike come from different tables or passages of the source. Positions of bridges follow the written chain, without caps; N, C: chain ends. Non-standard residues stand in square brackets, D forms with d. No end group written: not given here. hArg = N=C(N)NCCCC[C@H](N)C(=O)O; Aib = CC(C)(N)C(=O)O

What was measured:
[1] = target: T1, PTH/PTHrP receptor (P1R), wild-type, full-length (human, UniProt Q03431 27-593); assay: cell-based or functional assay
T1 sequence (looked up): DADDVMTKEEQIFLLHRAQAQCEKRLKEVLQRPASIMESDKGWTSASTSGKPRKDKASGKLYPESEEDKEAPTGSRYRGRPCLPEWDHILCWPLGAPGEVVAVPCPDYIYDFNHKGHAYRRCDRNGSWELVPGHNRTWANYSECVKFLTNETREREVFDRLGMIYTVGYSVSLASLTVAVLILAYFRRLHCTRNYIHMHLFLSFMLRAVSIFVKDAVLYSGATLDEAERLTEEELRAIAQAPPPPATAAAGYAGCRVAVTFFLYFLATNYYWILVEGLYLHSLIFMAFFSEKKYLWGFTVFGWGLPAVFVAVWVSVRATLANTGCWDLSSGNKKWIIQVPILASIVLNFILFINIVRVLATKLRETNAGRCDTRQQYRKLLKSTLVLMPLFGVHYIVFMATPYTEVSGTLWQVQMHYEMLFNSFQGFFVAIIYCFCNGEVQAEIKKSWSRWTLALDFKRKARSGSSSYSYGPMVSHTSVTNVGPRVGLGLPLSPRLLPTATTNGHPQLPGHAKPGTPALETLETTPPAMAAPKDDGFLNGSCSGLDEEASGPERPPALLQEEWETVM

[2] = target: T1, PTH/PTHrP receptor (P1R), wild-type, …; assay: cell-based or functional assay; remark: listed apart in the source
[3] = target: T1, PTH/PTHrP receptor (P1R), wild-type, …; assay: cell-based or functional assay; remark: listed apart in the source
[4] = target: T2, P1R-DelNt (truncated human P1R deleted for residues 24-181) (human, UniProt Q03431 182-593); assay: cell-based or functional assay
T2 sequence (looked up): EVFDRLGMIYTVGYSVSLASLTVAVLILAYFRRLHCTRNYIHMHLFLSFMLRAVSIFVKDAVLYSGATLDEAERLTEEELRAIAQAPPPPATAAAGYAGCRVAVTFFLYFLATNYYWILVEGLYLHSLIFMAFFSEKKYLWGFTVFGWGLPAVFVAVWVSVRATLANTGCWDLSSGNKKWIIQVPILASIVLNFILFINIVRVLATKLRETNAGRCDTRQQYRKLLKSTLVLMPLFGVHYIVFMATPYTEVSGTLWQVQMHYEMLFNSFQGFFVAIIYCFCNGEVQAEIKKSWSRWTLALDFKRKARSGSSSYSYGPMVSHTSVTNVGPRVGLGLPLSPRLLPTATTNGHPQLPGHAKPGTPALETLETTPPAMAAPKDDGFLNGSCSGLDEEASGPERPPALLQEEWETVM

[5] = target: T1, PTH/PTHrP receptor (P1R), wild-type, …; assay: cell-based or functional assay; remark: listed apart in the source
[6] = target: T1, PTH/PTHrP receptor (P1R), wild-type, …; assay: competition with 125I-[Ala3,12,Gln10,Har11,Trp14,Arg19,Tyr21]PTH(1-21)-amide tracer on HKRK-B28 cells expressing P1R
Procedure: Competition Binding. Binding reactions were performed with […] cells or in COS-7 cells in 24-well plates. The cells were rinsed with 0.5 mL of binding buffer, and then treated successively with 100 μL binding buffer, 100 μL of binding buffer containing various amounts of unlabeled competitor ligand, and 100 μL of binding buffer containing ca. 100,000 cpm of ¹²⁵I-[M]PTH(1-21)(SEQ. ID. NO. 16) or ¹²⁵I-[Aib^{1,3},M]PTH(1-21)(SEQ. ID. NO. 17) (ca. 26 fmol; final volume=300 μL). Incubations were 4 to 6 h at 4° C., at which time near equilibrium conditions were attained. Cells were then placed on ice, the binding medium was removed, and the monolayer was rinsed three times with 0.5 mL of cold binding buffer. The cells were subsequently lysed with 0.5 mL 5N NaOH and counted for radioactivity. For each tracer and in each experiment, the non-specific binding was determined as the radioactivity that bound in the presence of the same unlabeled peptide at a concentration of 1 μM, and was ˜1% of total radioactivity added for each tracer. The maximum specific binding (B₀) was the total radioactivity bound in the absence of competing ligand, corrected for nonspecific binding, and for each tracer, ranged from 8% to 20% of the total radioactivity added. Nonlinear regression was used to calculate binding IC₅₀ values (see below). Scatchard transformations of homologous competition binding data derived from studies with 26 fmol of ¹²⁵I-[Aib^{1,3},M]PTH(1-21) (SEQ. ID. NO. 17) were employed for estimations of apparent equilibrium dissociation constant (kDapps) and total number of ligand binding sites (Bₘₐₓ), assuming a single class of binding sites and equal affinities of the iodinated and non iodinated ligand.
The peptide PTH(1-34) ([Tyr³⁴]bPTH(1-34)NH₂) (SEQ. ID. NO. 10) and analogs containing substitutions at positions 6 and/or 10 in place of Gln and Asn, respectively, were evaluated in HKRK-B28 cells for the capacity to stimulate cAMP accumulation, and to inhibit the binding of ¹²⁵I-[Ala^{3,12}, Gln¹⁰, Har¹¹, Trp¹⁴,Arg¹⁹, Tyr²¹]PTH(1-21)-amide (SEQ. ID. NO. 30) tracer radioligand.

[7] = target: T2, P1R-DelNt (truncated human P1R deleted …); assay: cell-based or functional assay; remark: listed apart in the source
[8] = target: T2, P1R-DelNt (truncated human P1R deleted …); assay: cell-based or functional assay; remark: listed apart in the source
[9] = target: T1, PTH/PTHrP receptor (P1R), wild-type, …; assay: cell-based or functional assay; remark: listed apart in the source

B1: [(Lys^6, Glu^10)lac.]PTH(1-14) (peptide)
peptide: AVAEIKLMHE[hArg]AKW-NH2
modifications: lactam 6-10; N-terminus assumed
SMILES: CC[C@H](C)[C@H](NC(=O)[C@H](CCC(=O)O)NC(=O)[C@H](C)NC(=O)[C@@H](NC(=O)[C@H](C)N)C(C)C)C(=O)N[C@H]1CCCCNC(=O)CC[C@@H](C(=O)N[C@@H](CCCCNC(=N)N)C(=O)N[C@@H](C)C(=O)N[C@@H](CCCCN)C(=O)N[C@@H](Cc2c[nH]c3ccccc23)C(N)=O)NC(=O)[C@H](Cc2c[nH]cn2)NC(=O)[C@H](CCSC)NC(=O)[C@H](CC(C)C)NC1=O
cAMP potency relative to linear [Lys^6, Glu^10]PTH(1-14) [1]: 6 fold
cAMP EC50 [2]: 21 µM
cAMP Emax (%) [2]: 59%

SVSEIQLMHALGKHLNSMERVEWLRKKLQDVHNY-NH2 [[Ala^10]PTH(1-34)]
cAMP EC50 [3]: 0.27 µM
cAMP Emax (%) [3]: 96%
cAMP EC50 [4]: 14 µM
cAMP Emax (%) [4]: 46%
cAMP EC50 [5]: 3 µM
cAMP Emax (%) [5]: 106%
IC50 [6]: 6.4 µM

B2: [Aib^1,3]PTH(1-14) (AibValAibGluIleGlnLeuMetHisGlnHarAlaLysTrp-amide) (peptide)
peptide: [Aib]V[Aib]EIQLMHQ[hArg]AKW-NH2
modifications: N-terminus assumed
SMILES: CC[C@H](C)[C@H](NC(=O)[C@H](CCC(=O)O)NC(=O)C(C)(C)NC(=O)[C@@H](NC(=O)C(C)(C)N)C(C)C)C(=O)N[C@@H](CCC(N)=O)C(=O)N[C@@H](CC(C)C)C(=O)N[C@@H](CCSC)C(=O)N[C@@H](Cc1c[nH]cn1)C(=O)N[C@@H](CCC(N)=O)C(=O)N[C@@H](CCCCNC(=N)N)C(=O)N[C@@H](C)C(=O)N[C@@H](CCCCN)C(=O)N[C@@H](Cc1c[nH]c2ccccc12)C(N)=O
fold increase in cAMP accumulation [7]: 50 fold
cAMP EC50 [8]: 0.0066 µM
cAMP Emax (%) [8]: 100%

AVAEIQLMHQR-NH2 [PTH(1-11) (AlaValAlaGluIleGlnLeuMetHisGlnArg-amide)]
fold increase in cAMP formation [1]: 75 fold
fold increase in cAMP formation [7]: 55 fold
cAMP EC50 [9]: 5 µM
cAMP Emax (%) [9]: 100%
cAMP EC50 [8]: 14 µM
cAMP Emax (%) [8]: 100%
